Test results as given in PMC4713166, “Chicken scFvs with an Artificial Cysteine for Site-Directed Conjugation” (PLoS ONE, 2016).

B1: artificial cysteine-mutant scFv H13 (QCP), scFv-pIII fusion protein displayed on phage (scFv, V domains shown)
VH: AVTLDESGGGLQCPGGALSLVCKASGFTFSSYDMGWVRQAPGKGLEWVAGIDDDGSYPNYGPAVKGRATISRDNGQSTVRLQLNNLRAEDTGTYFCAKGIESDSDGYMTAEEIDAWGHGTEVIVSS
VL: ALTQPSSVSANLGGTVKITCSGGYSYYGWYQQKSPGSAPVTVIYESTKRPSNIPSRFSGSTSGSTGTLTITGVQADDAAVYYCGSWDSSSVGIFGAGTTLTVL
notes: VL as in m2; Order VL-linker-VH worked out as for m2
B2: artificial cysteine-mutant scFv L5, scFv-pIII fusion protein displayed on phage (scFv, V domains shown)
VH: AVTLDESGGGLQTPGGALSLVCKASGFTFSSYDMGWVRQAPGKGLEWVAGIDDDGSYPNYGPAVKGRATISRDNGQSTVRLQLNNLRAEDTGTYFCAKGIESDSDGYMTAEEIDAWGHGTEVIVSS
VL: ALCQPSSVSANLGGTVKITCSGGYSYYGWYQQKSPGSAPVTVIYESTKRPSNIPSRFSGSTSGSTGTLTITGVQADDAAVYYCGSWDSSSVGIFGAGTTLTVL
notes: VH as in m2; Order VL-linker-VH worked out as for m2
B3: artificial cysteine-mutant scFv H16, scFv-pIII fusion protein displayed on phage (scFv, V domains shown)
VH: AVTLDESGGGLQTPGCALSLVCKASGFTFSSYDMGWVRQAPGKGLEWVAGIDDDGSYPNYGPAVKGRATISRDNGQSTVRLQLNNLRAEDTGTYFCAKGIESDSDGYMTAEEIDAWGHGTEVIVSS
VL: ALTQPSSVSANLGGTVKITCSGGYSYYGWYQQKSPGSAPVTVIYESTKRPSNIPSRFSGSTSGSTGTLTITGVQADDAAVYYCGSWDSSSVGIFGAGTTLTVL
notes: as for B1
B4: artificial cysteine-mutant scFv L6, scFv-pIII fusion protein displayed on phage (scFv, V domains shown)
VH: AVTLDESGGGLQTPGGALSLVCKASGFTFSSYDMGWVRQAPGKGLEWVAGIDDDGSYPNYGPAVKGRATISRDNGQSTVRLQLNNLRAEDTGTYFCAKGIESDSDGYMTAEEIDAWGHGTEVIVSS
VL: ALTCPSSVSANLGGTVKITCSGGYSYYGWYQQKSPGSAPVTVIYESTKRPSNIPSRFSGSTSGSTGTLTITGVQADDAAVYYCGSWDSSSVGIFGAGTTLTVL
notes: as for B2
B5: artificial cysteine-mutant scFv L7, scFv-pIII fusion protein displayed on phage (scFv, V domains shown)
VH: AVTLDESGGGLQTPGGALSLVCKASGFTFSSYDMGWVRQAPGKGLEWVAGIDDDGSYPNYGPAVKGRATISRDNGQSTVRLQLNNLRAEDTGTYFCAKGIESDSDGYMTAEEIDAWGHGTEVIVSS
VL: ALTQCSSVSANLGGTVKITCSGGYSYYGWYQQKSPGSAPVTVIYESTKRPSNIPSRFSGSTSGSTGTLTITGVQADDAAVYYCGSWDSSSVGIFGAGTTLTVL
notes: as for B2
B6: charge-variant artificial H13 cysteine-mutant scFv RCK, scFv-C kappa fusion protein cotinine conjugate (scFv, V domains shown)
VH: AVTLDESGGGLRCKGGALSLVCKASGFTFSSYDMGWVRQAPGKGLEWVAGIDDDGSYPNYGPAVKGRATISRDNGQSTVRLQLNNLRAEDTGTYFCAKGIESDSDGYMTAEEIDAWGHGTEVIVSS
VL: ALTQPSSVSANLGGTVKITCSGGYSYYGWYQQKSPGSAPVTVIYESTKRPSNIPSRFSGSTSGSTGTLTITGVQADDAAVYYCGSWDSSSVGIFGAGTTLTVL
notes: VL as in m2; VH as in m6 (GenBank KP764767 with cysteine at Kabat H13), the flanking residues of H13 changed from QCP to RCK; source: HEK293F, transfected, purified (KappaSelect); reduced with TCEP-HCl, treated with dehydroascorbic acid, conjugated with GMBS-coupled cotinine
B7: charge-variant artificial H13 cysteine-mutant scFv ECE, scFv-C kappa fusion protein cotinine conjugate (scFv, V domains shown)
VH: AVTLDESGGGLECEGGALSLVCKASGFTFSSYDMGWVRQAPGKGLEWVAGIDDDGSYPNYGPAVKGRATISRDNGQSTVRLQLNNLRAEDTGTYFCAKGIESDSDGYMTAEEIDAWGHGTEVIVSS
VL: ALTQPSSVSANLGGTVKITCSGGYSYYGWYQQKSPGSAPVTVIYESTKRPSNIPSRFSGSTSGSTGTLTITGVQADDAAVYYCGSWDSSSVGIFGAGTTLTVL
notes: VL as in m2; VH as in m6 (GenBank KP764767 with cysteine at Kabat H13), the flanking residues of H13 changed from QCP to ECE; source: HEK293F, transfected, purified (KappaSelect); reduced with TCEP-HCl, treated with dehydroascorbic acid, conjugated with GMBS-coupled cotinine
B8: charge-variant artificial H13 cysteine-mutant scFv ECD, scFv-C kappa fusion protein cotinine conjugate (scFv, V domains shown)
VH: AVTLDESGGGLECDGGALSLVCKASGFTFSSYDMGWVRQAPGKGLEWVAGIDDDGSYPNYGPAVKGRATISRDNGQSTVRLQLNNLRAEDTGTYFCAKGIESDSDGYMTAEEIDAWGHGTEVIVSS
VL: ALTQPSSVSANLGGTVKITCSGGYSYYGWYQQKSPGSAPVTVIYESTKRPSNIPSRFSGSTSGSTGTLTITGVQADDAAVYYCGSWDSSSVGIFGAGTTLTVL
notes: VL as in m2; VH as in m6 (GenBank KP764767 with cysteine at Kabat H13), the flanking residues of H13 changed from QCP to ECD; source: HEK293F, transfected, purified (KappaSelect); reduced with TCEP-HCl, treated with dehydroascorbic acid, conjugated with GMBS-coupled cotinine
B9: artificial cysteine-mutant scFv L5, scFv-C kappa fusion protein cotinine conjugate (scFv, V domains shown)
VH: AVTLDESGGGLQTPGGALSLVCKASGFTFSSYDMGWVRQAPGKGLEWVAGIDDDGSYPNYGPAVKGRATISRDNGQSTVRLQLNNLRAEDTGTYFCAKGIESDSDGYMTAEEIDAWGHGTEVIVSS
VL: ALCQPSSVSANLGGTVKITCSGGYSYYGWYQQKSPGSAPVTVIYESTKRPSNIPSRFSGSTSGSTGTLTITGVQADDAAVYYCGSWDSSSVGIFGAGTTLTVL
notes: VL as in m3: GenBank KP764766 with Kabat residue L5 replaced with cysteine; VH as in m2; that it was a cotinine conjugate of the scFv-C kappa protein is inferred from that detection; also called L5 mutant scFv; source: HEK293F, transfected, purified (KappaSelect); conjugated with GMBS-coupled cotinine
B10: charge-variant artificial H13 cysteine-mutant scFv DCE, scFv-C kappa fusion protein cotinine conjugate (scFv, V domains shown)
VH: AVTLDESGGGLDCEGGALSLVCKASGFTFSSYDMGWVRQAPGKGLEWVAGIDDDGSYPNYGPAVKGRATISRDNGQSTVRLQLNNLRAEDTGTYFCAKGIESDSDGYMTAEEIDAWGHGTEVIVSS
VL: ALTQPSSVSANLGGTVKITCSGGYSYYGWYQQKSPGSAPVTVIYESTKRPSNIPSRFSGSTSGSTGTLTITGVQADDAAVYYCGSWDSSSVGIFGAGTTLTVL
notes: VL as in m2; VH as in m6 (GenBank KP764767 with cysteine at Kabat H13), the flanking residues of H13 changed from QCP to DCE; also called DEC (as printed once); source: HEK293F, transfected, purified (KappaSelect); reduced with TCEP-HCl, treated with dehydroascorbic acid, conjugated with GMBS-coupled cotinine

What follows are binders tested against T1, recombinant human Fc-tagged PSA (Homo sapiens, UniProt P07288) (assay: ELISA; phage enzyme immunoassay: recombinant human Fc-tagged PSA coated on the microtiter plate (5 ug/ml in PBS, overnight at 4 C), blocked with 3% BSA in PBS; scFv-displaying phages in culture supernatant; HRP-conjugated anti-M13 antibody, ABTS, optical density at 405 nm). Details: one partner purified.
T1 construct: prostate-specific antigen (PSA), human; also called prostate-specific antigen; recombinant Fc-tagged PSA
T1 sequence (P07288 18-261): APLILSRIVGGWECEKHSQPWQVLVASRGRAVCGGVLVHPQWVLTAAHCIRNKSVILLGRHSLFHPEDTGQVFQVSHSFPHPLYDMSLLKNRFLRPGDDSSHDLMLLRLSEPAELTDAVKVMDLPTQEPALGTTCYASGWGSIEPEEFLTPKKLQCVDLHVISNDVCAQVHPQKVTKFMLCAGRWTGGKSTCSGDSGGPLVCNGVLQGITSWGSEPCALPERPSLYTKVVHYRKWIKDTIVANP
B1: binds.
B2: binds.
B3: binds.
B4: binds.
B5: binds.

These binders were tested against T1, recombinant human Fc-tagged PSA (assay: ELISA; enzyme immunoassay: recombinant human Fc-tagged PSA coated on the plate (0.1 M NaHCO3 pH 8.6, overnight at 4 C), blocked with 3% BSA in PBS; 250 ng cotinine-conjugated scFv-C kappa fusion protein in 50 ul, 1 h at 37 C; HRP-conjugated anti-cotinine IgG1 or HRP-conjugated anti-human C kappa antibody, TMB, optical density at 450 nm). Details: both partners purified.
B6: binds.
B7: binds.
B8: binds.
B9: binds.
B10: binds.
